Measurements reported in patent US20180072770A1, “Influenza Virus Binding Peptides” (priority 2014, published 2018).
No end group written: not given here.

Key:
[1] = molecular target: T1, hemagglutinin of influenza A virus X31 (A/Aichi/2/68 H3N2) (influenza A virus A/Aichi/2/68 H3N2 (X31)), P03437; experiment: cell-based or functional assay
[2] = molecular target: T1, hemagglutinin of influenza A virus X31 …
[3] = molecular target: T1, hemagglutinin of influenza A virus X31 …; remark: listed apart in the source
[4] = molecular target: T1, hemagglutinin of influenza A virus X31 …; experiment: SPR competition, virus preincubated with peptide, immobilised fetuin

Binder | Hemagglutination inhibition (IC50, HAI) [1] [µM] | Mean Ki(HAI), hemagglutination inhibition assay, human erythrocytes [1] [µM] | IC50 [2] [µM] | Kd [3] [µM] | fold lower IC50,RB than the reference peptide SEQ ID NO:1 [4] [fold]
KKKKFYDYDVFY (not fully specified (C-terminus)) [reference peptide with SEQ ID NO:1 (FYDYDVFY), N-terminal (Lys)4, C-terminal amide] | 163 | 235 | 90 | 59 | –
KKKKFYGYDVFF (not fully specified (C-terminus)) [peptide with SEQ ID NO:28, N-terminal (Lys)4, C-terminal amide] | 18 | 31.9 | 20 | – | 4.5
